Experimental data taken from publication PMC9940631 (Molecular Cancer Therapeutics, 2022).
Where a SMILES comes first, the peptide text is derived from it. [ ]: non-standard residue; d: D form. The star is where a group is joined. Dolaproine = CO[C@@H]([C@@H]1CCCN1)[C@@H](C)C(=O)O; Dil = CC[C@H](C)[C@H](NC)[C@@H](CC(=O)O)OC; X1 = C[C@@H](N*)[C@@H](O)c1ccccc1; NMeV = CN[C@H](C(=O)O)C(C)C

Tests used:
[1] = molecular target: T1, endogenous Nectin-4 expressed on the cell membrane of MDA-MB-468 cells (Homo sapiens, UniProt Q96NY8); assay: High content imaging of binding to live MDA-MB-468 cells; details: anti-MMAE antibody detection
T1 sequence (Q96NY8 32-510): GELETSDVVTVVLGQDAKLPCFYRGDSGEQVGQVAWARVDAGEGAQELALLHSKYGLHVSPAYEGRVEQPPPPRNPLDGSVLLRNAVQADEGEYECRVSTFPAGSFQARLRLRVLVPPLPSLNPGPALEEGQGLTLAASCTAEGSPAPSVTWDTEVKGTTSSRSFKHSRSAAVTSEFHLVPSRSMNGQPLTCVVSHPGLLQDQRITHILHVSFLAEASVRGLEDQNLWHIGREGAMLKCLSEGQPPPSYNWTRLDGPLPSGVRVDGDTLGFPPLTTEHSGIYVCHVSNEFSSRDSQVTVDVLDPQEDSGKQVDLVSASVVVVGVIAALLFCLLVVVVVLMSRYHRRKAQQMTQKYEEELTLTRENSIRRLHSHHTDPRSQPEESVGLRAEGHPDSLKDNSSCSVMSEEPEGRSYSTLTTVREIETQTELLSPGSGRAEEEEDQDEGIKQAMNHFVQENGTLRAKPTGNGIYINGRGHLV

[2] = test system: NCI-H292, MDA-MB-468, and NCI-H322 CDX tumors; assay: Tumor MMAE accumulation after BT8009 in CDX models; format: in vivo, mouse; details: after administration of BT8009, three CDX models, n = 3 per timepoint, LC/MS-MS
[3] = molecular target: endogenous Nectin-4 expressed on the cell membrane of MDA-MB-468 cells (human (endogenous in MDA-MB-468)) (UniProt Q96NY8); assay: high content imaging of binding to live cells
[4] = molecular target: hNecl5 (human) (UniProt P15151); assay: SPR
[5] = molecular target: hNecl4 (human) (UniProt Q8NFZ8); assay: SPR
[6] = molecular target: hNecl2 (human) (UniProt Q9BY67); assay: SPR
[7] = molecular target: hNecl3 (human) (UniProt Q8N3J6); assay: SPR
[8] = molecular target: hNectin2 (human) (UniProt Q92692); assay: SPR
[9] = molecular target: human Nectin-4 extra-cellular domain (human) (UniProt Q96NY8); assay: SPR
[10] = molecular target: hNectin1 (human) (UniProt Q15223); assay: SPR
[11] = molecular target: hNectin3 (human) (UniProt Q9NQS3); assay: SPR
[12] = molecular target: hNecl1 (human) (UniProt Q8N126); assay: SPR
[13] = test system: head and neck PDX (HN-13–001); assay: Head and neck PDX model; format: in vivo, mouse; details: dosed initially at 5 mg/kg (D0, D7) and subsequently 10 mg/kg (D14)
[14] = molecular target: Nectin-4; assay: SPR of Nectin-4 ADC; format: binding; details: read-out: KD for Nectin-4, chip coated with ADC, protein passed over it
[15] = test system: LU-01–0412 PDX; assay: LU-01–0412 lung PDX model; format: in vivo, mouse; details: PDX NSCLC, Fig. 6D; rate and degree of regression comparable
[16] = In ICR SCID mouse; ref Enfortumab vedotin data from literature; cited from earlier work
[17] = terminal plasma half-life; ref EV multi-disciplinary review and evaluation; cited from earlier work
[18] = terminal plasma half-life; ref EV multi-disciplinary review and evaluation; cited from earlier work; remark: listed apart in the source

Chain of hNecl3 (human) (Q8N3J6 25-435): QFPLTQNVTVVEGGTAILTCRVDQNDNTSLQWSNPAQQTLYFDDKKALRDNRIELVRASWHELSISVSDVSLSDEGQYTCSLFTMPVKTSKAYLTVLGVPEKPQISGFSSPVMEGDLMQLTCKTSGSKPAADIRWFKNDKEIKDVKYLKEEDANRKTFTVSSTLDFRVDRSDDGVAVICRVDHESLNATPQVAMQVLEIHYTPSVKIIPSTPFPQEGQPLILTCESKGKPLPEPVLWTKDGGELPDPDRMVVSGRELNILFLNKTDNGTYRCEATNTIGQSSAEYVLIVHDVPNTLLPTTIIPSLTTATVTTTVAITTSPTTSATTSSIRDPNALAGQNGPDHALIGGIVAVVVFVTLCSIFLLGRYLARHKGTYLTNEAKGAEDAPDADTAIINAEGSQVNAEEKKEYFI
Chain of hNecl4 (human) (Q8NFZ8 21-388): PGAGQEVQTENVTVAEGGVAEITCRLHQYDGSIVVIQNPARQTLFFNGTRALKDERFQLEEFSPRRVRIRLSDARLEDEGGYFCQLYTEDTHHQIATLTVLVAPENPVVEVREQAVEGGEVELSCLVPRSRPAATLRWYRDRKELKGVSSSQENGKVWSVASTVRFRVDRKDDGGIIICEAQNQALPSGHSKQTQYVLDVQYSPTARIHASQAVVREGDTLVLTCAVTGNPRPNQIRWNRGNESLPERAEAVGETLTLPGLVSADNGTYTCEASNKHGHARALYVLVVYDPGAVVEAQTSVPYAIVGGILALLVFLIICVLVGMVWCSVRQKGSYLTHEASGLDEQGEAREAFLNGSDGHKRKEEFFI
Chain of hNecl2 (human) (Q9BY67 45-442): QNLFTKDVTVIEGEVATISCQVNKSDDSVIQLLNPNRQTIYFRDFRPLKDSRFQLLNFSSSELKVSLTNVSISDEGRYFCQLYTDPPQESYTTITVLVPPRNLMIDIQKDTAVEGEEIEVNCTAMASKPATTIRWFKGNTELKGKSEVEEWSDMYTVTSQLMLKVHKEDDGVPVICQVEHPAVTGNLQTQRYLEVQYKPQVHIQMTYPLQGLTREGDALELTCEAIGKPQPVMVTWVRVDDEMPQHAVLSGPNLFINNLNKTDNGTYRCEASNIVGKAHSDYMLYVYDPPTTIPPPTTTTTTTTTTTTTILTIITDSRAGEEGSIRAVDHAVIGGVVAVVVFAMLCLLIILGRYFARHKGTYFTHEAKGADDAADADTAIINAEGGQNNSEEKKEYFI
Chain of hNecl5 (human) (P15151 21-417): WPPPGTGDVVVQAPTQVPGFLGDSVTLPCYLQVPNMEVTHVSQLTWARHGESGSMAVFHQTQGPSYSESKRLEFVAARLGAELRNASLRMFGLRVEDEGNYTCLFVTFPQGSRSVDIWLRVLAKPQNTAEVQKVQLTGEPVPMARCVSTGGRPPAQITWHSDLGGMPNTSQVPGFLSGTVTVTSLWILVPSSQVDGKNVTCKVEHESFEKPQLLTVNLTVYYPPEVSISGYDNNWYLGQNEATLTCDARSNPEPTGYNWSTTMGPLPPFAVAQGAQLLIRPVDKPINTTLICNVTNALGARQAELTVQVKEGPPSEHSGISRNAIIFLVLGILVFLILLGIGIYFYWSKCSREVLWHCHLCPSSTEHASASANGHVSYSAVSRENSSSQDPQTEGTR
Chain of hNectin2 (human) (Q92692 32-538): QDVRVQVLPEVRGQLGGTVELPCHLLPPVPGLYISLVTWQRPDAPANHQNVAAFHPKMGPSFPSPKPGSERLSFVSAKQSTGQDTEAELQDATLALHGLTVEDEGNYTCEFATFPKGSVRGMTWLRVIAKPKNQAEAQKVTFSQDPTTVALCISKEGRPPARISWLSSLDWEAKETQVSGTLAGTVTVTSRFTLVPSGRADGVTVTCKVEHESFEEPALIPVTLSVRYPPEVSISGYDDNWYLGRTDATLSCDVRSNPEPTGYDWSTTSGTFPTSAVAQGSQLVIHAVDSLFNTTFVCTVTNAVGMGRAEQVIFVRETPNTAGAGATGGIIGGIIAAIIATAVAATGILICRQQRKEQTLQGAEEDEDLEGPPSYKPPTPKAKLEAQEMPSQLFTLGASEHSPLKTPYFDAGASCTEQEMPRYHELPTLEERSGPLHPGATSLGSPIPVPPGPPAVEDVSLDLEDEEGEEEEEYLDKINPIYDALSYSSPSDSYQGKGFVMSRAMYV
Chain of hNectin1 (human) (Q15223 31-517): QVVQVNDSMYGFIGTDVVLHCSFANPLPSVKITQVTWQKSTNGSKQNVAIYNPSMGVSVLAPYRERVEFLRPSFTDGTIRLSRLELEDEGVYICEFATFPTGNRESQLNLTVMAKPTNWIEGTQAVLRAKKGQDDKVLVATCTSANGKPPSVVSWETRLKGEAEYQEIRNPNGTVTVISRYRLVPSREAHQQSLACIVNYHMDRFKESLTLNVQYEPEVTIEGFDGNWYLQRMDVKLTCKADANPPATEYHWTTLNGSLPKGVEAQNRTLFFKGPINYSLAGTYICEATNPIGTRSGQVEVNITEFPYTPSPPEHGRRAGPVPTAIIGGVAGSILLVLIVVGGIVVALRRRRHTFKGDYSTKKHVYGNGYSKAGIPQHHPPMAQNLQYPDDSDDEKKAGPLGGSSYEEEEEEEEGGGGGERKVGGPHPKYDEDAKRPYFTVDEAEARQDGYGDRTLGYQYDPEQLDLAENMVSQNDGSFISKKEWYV
Chain of hNecl1 (human) (Q8N126 25-398): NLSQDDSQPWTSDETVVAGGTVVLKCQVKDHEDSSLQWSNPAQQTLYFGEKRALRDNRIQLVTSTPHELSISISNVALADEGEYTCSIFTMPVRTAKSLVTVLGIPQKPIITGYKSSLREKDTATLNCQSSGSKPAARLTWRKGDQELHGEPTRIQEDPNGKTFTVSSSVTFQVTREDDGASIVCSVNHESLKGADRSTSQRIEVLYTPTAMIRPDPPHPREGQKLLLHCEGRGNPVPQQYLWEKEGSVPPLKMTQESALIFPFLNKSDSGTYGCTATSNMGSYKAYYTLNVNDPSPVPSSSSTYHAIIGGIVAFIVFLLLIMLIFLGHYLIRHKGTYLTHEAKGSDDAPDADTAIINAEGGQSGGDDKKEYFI
Chain of hNectin3 (human) (Q9NQS3 58-549): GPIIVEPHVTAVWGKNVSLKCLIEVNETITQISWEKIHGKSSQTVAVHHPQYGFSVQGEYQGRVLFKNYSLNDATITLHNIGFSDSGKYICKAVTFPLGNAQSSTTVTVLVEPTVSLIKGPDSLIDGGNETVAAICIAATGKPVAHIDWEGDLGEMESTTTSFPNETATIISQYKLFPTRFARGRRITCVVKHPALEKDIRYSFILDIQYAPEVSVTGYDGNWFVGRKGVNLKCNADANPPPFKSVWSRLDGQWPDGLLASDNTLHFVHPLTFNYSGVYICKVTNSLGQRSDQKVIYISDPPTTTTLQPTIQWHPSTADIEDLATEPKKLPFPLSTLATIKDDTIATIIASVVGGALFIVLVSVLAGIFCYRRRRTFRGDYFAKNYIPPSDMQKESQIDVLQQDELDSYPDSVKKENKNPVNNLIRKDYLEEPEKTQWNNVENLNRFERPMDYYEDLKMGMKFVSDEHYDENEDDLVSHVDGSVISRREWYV

With `CC[C@H](C)[C@@H]([C@@H](CC(=O)N1CCC[C@H]1[C@H](OC)[C@@H](C)C(=O)N[C@H](C)[C@@H](O)c1ccccc1)OC)N(C)C(=O)[C@@H](NC(=O)[C@@H](NC)C(C)C)C(C)C` [MMAE, mono-methylauristatin E] (H-[NMeV]V[Dil][Dolaproine]-X1) the “affinity for the cells (in words)” value ([1]; MDA-MB-468 cells, 4°C) was “no affinity” and the “time to peak tumor concentrations of total MMAE” value [2] was 2 to 4 h.

With BCY8781 (peptide) the Kd [3] was over 10 µM.

Work on BT8009 (peptide) yielded a Kd [3] of 0.0129 µM, a Kd [4] of over 20 µM and a Kd [5] of over 20 µM. The Kd [6] was over 20 µM, the Kd [7] was over 20 µM and the Kd [8] was over 20 µM. For the same molecule, the Kd [9] was 0.0025 µM, the Kd [10] was over 20 µM and the Kd [11] was over 20 µM. For the same molecule, the Kd [12] was over 20 µM.

In the case of “Nectin-4 ADC: in-house EV analog; enfortumab-sequence antibody conjugated with MC-VC-PAB MMAE, 152kDa, DAR 3.98”, the “antitumor response, ADC” value [13] is reported as “minimally reduced tumor growth rate”, the “Bmax(RFU) on MDA-MB-468 cells” value ([1]; 45 minutes at 4°C) is reported as 35.2 ± 2.2 RFU and the Kd [14] is reported as 0.0012 to 0.0046 µM. For the same molecule, the “tumor regrowth after treatment cessation” value [15] was “tumor regrowth from drug cessation”.

In the case of enfortumab vedotin [EV], the “Vdss (L/kg), EV, Mouse” value [16] is given as 0.08 L/kg, the “EV t1/2 NHP” value [17] is given as 17 to 40.8 h and the “EV t1/2 rat” value [18] is given as 24 to 31.2 h.
